Target: T1, Flag-tagged kinase dead murine DLK S302A, not phosphorylated at T43, S272 and S533
T1 chain: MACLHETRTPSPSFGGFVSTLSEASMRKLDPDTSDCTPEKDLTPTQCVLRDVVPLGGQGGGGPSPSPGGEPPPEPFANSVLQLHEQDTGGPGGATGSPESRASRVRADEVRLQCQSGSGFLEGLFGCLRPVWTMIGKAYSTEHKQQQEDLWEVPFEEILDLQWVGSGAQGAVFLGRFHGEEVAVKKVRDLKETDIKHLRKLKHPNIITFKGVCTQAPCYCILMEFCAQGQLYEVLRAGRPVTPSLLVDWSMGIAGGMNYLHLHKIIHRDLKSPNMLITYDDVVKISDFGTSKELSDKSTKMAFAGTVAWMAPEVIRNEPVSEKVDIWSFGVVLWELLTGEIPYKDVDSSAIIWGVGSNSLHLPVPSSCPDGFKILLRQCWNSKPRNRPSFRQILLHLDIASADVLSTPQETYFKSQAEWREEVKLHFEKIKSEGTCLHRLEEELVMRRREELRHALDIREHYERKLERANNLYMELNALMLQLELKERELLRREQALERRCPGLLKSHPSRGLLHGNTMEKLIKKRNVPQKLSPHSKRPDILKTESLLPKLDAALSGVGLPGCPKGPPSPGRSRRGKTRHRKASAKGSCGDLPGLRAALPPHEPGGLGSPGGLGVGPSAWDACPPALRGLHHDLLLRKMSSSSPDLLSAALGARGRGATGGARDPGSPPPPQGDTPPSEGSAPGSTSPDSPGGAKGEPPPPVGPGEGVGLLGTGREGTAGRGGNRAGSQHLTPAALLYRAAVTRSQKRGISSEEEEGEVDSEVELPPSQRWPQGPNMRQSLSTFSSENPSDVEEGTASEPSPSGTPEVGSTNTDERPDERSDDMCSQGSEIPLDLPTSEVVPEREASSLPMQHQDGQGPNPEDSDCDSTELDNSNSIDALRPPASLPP

B1: GST-tagged human recombinant JNK3 (Millipore) (protein)
chain: MSLHFLYYCSEPTLDVKIAFCQGFDKQVDVSYIAKHYNMSKSKVDNQFYSVEVGDSTFTVLKRYQNLKPIGSGAQGIVCAAYDAVLDRNVAIKKLSRPFQNQTHAKRAYRELVLMKCVNHKNIISLLNVFTPQKTLEEFQDVYLVMELMDANLCQVIQMELDHERMSYLLYQMLCGIKHLHSAGIIHRDLKPSNIVVKSDCTLKILDFGLARTAGTSFMMTPYVVTRYYRAPEVILGMGYKENVDIWSVGCIMGEMVRHKILFPGRDYIDQWNKVIEQLGTPCPEFMKKLQPTVRNYVENRPKYAGLTFPKLFPDSLFPADSEHNKLKASQARDLLSKMLVIDPAKRISVDDALQHPYINVWYDPAEVEAPPPQIYDKQLDEREHTIEEWKELIYKEVMNSEEKTKNGVVKGQPSPSGAAVNSSESLPPSSSVNDISSMSTDQTLASDTDSSLEASAGPLGCCR
in vitro kinase assay; phosphorylation of T43 and S533 read by blotting with phospho-specific antibodies: both T43 and S533 can be phosphorylated directly by JNK
